Tests used:
[1] = molecular target: T1, monomeric soluble human PD-1 extracellular domain (human, UniProt Q15116 25-170); test: SPR (Biacore 8K), 37 C, antibody captured via anti-human IgG, soluble PD-1 ECD as analyte, single cycle kinetics
T1 construct: extracellular domain; also called recombinant human PD-1 extracellular domain
Procedure: (§1) Antibody variants were produced consisting of all the potential combinations of humanized VH and VL domains. […] The binding affinity and kinetics of the humanized antibody variants to human or cynomolgus PD-1 were determined by surface plasmon resonance (SPR) using the Biacore 8 K (Cytiva). Human antibody capture kit (Cytiva) was used to coat a Series S CM5 Sensor Chip (Cytiva) with polyclonal anti-human IgG. Anti-PD-1 antibody was then captured onto the biosensor surface and an isotype control antibody captured in the reference channel. Various concentrations of monomeric soluble human PD-1 extracellular domain or soluble cynomolgus macaque PD-1 extracellular domain were then injected over the immobilized antibodies in the buffer 10 mM Hepes, 150 mM NaCl, 0.005% v/v Surfactant P20, pH 7.4 (HBS-P) at 37° C., in a single cycle kinetics analysis. Association and dissociation rates were fitted using BiaEvaluation Software (Cytiva) after reference and blank subtractions, and dissociation constants were calculated.

[2] = molecular target: T2, soluble cynomolgus macaque PD-1 extracellular domain (cynomolgus macaque, UniProt B0LAJ3 25-170); test: as above
T2 construct: also called Cyno PD-1; cynomolgus PD-1
T2 sequence (B0LAJ3 entry or part of it limits assumed): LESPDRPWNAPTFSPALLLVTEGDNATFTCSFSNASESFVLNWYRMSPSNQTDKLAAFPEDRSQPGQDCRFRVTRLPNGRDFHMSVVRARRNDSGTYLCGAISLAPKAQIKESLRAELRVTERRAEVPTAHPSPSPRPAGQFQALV
Procedure: as §1

T1 sequence (Q15116 25-170): as the sequence (B0LAJ3 entry or part of it limits assumed) above, with E2D, A10P, L19V, A35T, R75Q, A144T counted along it

Row | Kd [1] [nM] | Kd [2] [nM] | Binder
1 | 53.7 | 318 | Parental (Clone 19 VH and VL) (antibody, V domains shown, The antibodies were captured through anti-human IgG and the variants were made on human IgG1 kappa, so it is probably a chimeric human IgG1 kappa) VH: QVQLQQSGAELVKPGASVKMSCKAFGYTFTTYPIEWMKQNHGKSLEWIGNFHPYNDDTKYNEKFKGKAKLTVEKSSTTVYLELSRLTSDDSAVYYCARENYGSHGGFVYWGQGTLVTVSG VL: ENVLTQSPAIMSASPGEKVTMTCRASSSVISSYLHWYQQKSGASPKLWIYSTSNLASGVPDRFSGSGSGTSYSLTISSVEAEDAATYYCQQYNSYPLTFGAGTKLEIK
2 | 37.3 | 236 | humCL19v3 (antibody, human IgG1, V domains shown, hu-VH1 + hu-VL3; human IgG1 kappa isotype) VH: QVQLVQSGAEVKKPGASVKVSCKAFGYTFTTYPIEWMRQAPGKGLEWIGNFHPYNDDTKYNEKFQGRVTLTVDKSSTTVYMELSSLRSEDTAVYYCARENYGSHGGFVYWGQGTLVTVSS VL: ENVLTQSPATLSLSPGERATLSCRASSSVISSYLHWYQQKPGQAPRLLIYSTSNLASGIPARFSGSGSGTDYTLTISSLEPEDFAVYYCQQYNSYPLTFGGGTKLEIK
3 | 2000 | 15200 | humCL19v6 (antibody, human IgG1, V domains shown, hu-VH2 + hu-VL2; human IgG1 kappa isotype) VH: QVQLVQSGAEVKKPGASVKVSCKAFGYTFTTYPIEWVRQAPGKGLEWMGNFHPYNDDTKYNEKFQGRVTMTVDKSTTTVYMELSSLRSEDTAVYYCARENYGSHGGFVYWGQGTLVTVSS VL: ENQLTQSPSSLSASVGDRVTITCRASSSVISSYLHWYQQKPGKAPKLLIYSTSNLASGVPSRFSGSGSGTDYTLTISSLQPEDFATYYCQQYRGYPLTFGGGTKLEIK
4 | 52.5 | 249 | humCL19v11 (antibody, human IgG1, V domains shown, hu-VH3 + hu-VL3; human IgG1 kappa isotype) VH: QVQLVQSGSELKKPGASVKVSCKAFGYTFTTYPIEWMRQAPGQGLEWIGNFHPYNDDTKYNEGFTGRFVLSVDKSSTTVYLQISSLKAEDTAVYYCARENYGSHGGFVYWGQGTLVTVSS VL: ENVLTQSPATLSLSPGERATLSCRASSSVISSYLHWYQQKPGQAPRLLIYSTSNLASGIPARFSGSGSGTDYTLTISSLEPEDFAVYYCQQYNSYPLTFGGGTKLEIK
5 | 1010 | – | humCL19v2 (antibody, human IgG1, V domains shown, hu-VH1 + hu-VL2; human IgG1 kappa isotype) VH: QVQLVQSGAEVKKPGASVKVSCKAFGYTFTTYPIEWMRQAPGKGLEWIGNFHPYNDDTKYNEKFQGRVTLTVDKSSTTVYMELSSLRSEDTAVYYCARENYGSHGGFVYWGQGTLVTVSS VL: ENQLTQSPSSLSASVGDRVTITCRASSSVISSYLHWYQQKPGKAPKLLIYSTSNLASGVPSRFSGSGSGTDYTLTISSLQPEDFATYYCQQYRGYPLTFGGGTKLEIK
6 | 58.9 | 369 | humCL19v8 (antibody, human IgG1, V domains shown, hu-VH2 + hu-VL4; human IgG1 kappa isotype) VH: QVQLVQSGAEVKKPGASVKVSCKAFGYTFTTYPIEWVRQAPGKGLEWMGNFHPYNDDTKYNEKFQGRVTMTVDKSTTTVYMELSSLRSEDTAVYYCARENYGSHGGFVYWGQGTLVTVSS VL: ENVLTQSPATLSLSPGERATLSCRASSSVISSYLHWYQQKPGQAPRLLIYSTSNRATGIPARFSGSGSGTDYTLTISSLEPEDFAVYYCQQYNSYPLTFGGGTKLEIK
7 | 64.5 | 565 | humCL19v7 (antibody, human IgG1, V domains shown, hu-VH2 + hu-VL3; human IgG1 kappa isotype) VH: QVQLVQSGAEVKKPGASVKVSCKAFGYTFTTYPIEWVRQAPGKGLEWMGNFHPYNDDTKYNEKFQGRVTMTVDKSTTTVYMELSSLRSEDTAVYYCARENYGSHGGFVYWGQGTLVTVSS VL: ENVLTQSPATLSLSPGERATLSCRASSSVISSYLHWYQQKPGQAPRLLIYSTSNLASGIPARFSGSGSGTDYTLTISSLEPEDFAVYYCQQYNSYPLTFGGGTKLEIK
8 | 32 | 199 | humCL19v4 (antibody, human IgG1, V domains shown, hu-VH1 + hu-VL4; human IgG1 kappa isotype) VH: QVQLVQSGAEVKKPGASVKVSCKAFGYTFTTYPIEWMRQAPGKGLEWIGNFHPYNDDTKYNEKFQGRVTLTVDKSSTTVYMELSSLRSEDTAVYYCARENYGSHGGFVYWGQGTLVTVSS VL: ENVLTQSPATLSLSPGERATLSCRASSSVISSYLHWYQQKPGQAPRLLIYSTSNRATGIPARFSGSGSGTDYTLTISSLEPEDFAVYYCQQYNSYPLTFGGGTKLEIK
9 | 57.6 | 440 | humCL19v5 (antibody, human IgG1, V domains shown, hu-VH2 + hu-VL1; human IgG1 kappa isotype) VH: QVQLVQSGAEVKKPGASVKVSCKAFGYTFTTYPIEWVRQAPGKGLEWMGNFHPYNDDTKYNEKFQGRVTMTVDKSTTTVYMELSSLRSEDTAVYYCARENYGSHGGFVYWGQGTLVTVSS VL: ENQLTQSPSSLSASVGDRVTITCRASSSVISSYLHWYQQKPGKAPKLLIYSTSNLASGVPSRFSGSGSGTDYTLTISSLQPEDFATYYCQQYNSYPLTFGGGTKLEIK
10 | 161 | 896 | humCL19v16 (antibody, human IgG1, V domains shown, hu-VH4 + hu-VL4; human IgG1 kappa isotype) VH: QVQLVQSGSELKKPGASVKVSCKAFGYTFTTYPIEWVRQAPGQGLEWMGNFHPYNDDTKYNEGFTGRFVFSVDKSVTTVYLQISSLKAEDTAVYYCARENYGSHGGFVYWGQGTLVTVSS VL: ENVLTQSPATLSLSPGERATLSCRASSSVISSYLHWYQQKPGQAPRLLIYSTSNRATGIPARFSGSGSGTDYTLTISSLEPEDFAVYYCQQYNSYPLTFGGGTKLEIK
11 | 47.5 | 253 | humCL19v12 (antibody, human IgG1, V domains shown, hu-VH3 + hu-VL4; human IgG1 kappa isotype) VH: QVQLVQSGSELKKPGASVKVSCKAFGYTFTTYPIEWMRQAPGQGLEWIGNFHPYNDDTKYNEGFTGRFVLSVDKSSTTVYLQISSLKAEDTAVYYCARENYGSHGGFVYWGQGTLVTVSS VL: ENVLTQSPATLSLSPGERATLSCRASSSVISSYLHWYQQKPGQAPRLLIYSTSNRATGIPARFSGSGSGTDYTLTISSLEPEDFAVYYCQQYNSYPLTFGGGTKLEIK
12 | 44.8 | 251 | humCL19v9 (antibody, human IgG1, V domains shown, hu-VH3 + hu-VL1; human IgG1 kappa isotype) VH: QVQLVQSGSELKKPGASVKVSCKAFGYTFTTYPIEWMRQAPGQGLEWIGNFHPYNDDTKYNEGFTGRFVLSVDKSSTTVYLQISSLKAEDTAVYYCARENYGSHGGFVYWGQGTLVTVSS VL: ENQLTQSPSSLSASVGDRVTITCRASSSVISSYLHWYQQKPGKAPKLLIYSTSNLASGVPSRFSGSGSGTDYTLTISSLQPEDFATYYCQQYNSYPLTFGGGTKLEIK
13 | 670 | – | humCL19v10 (antibody, human IgG1, V domains shown, hu-VH3 + hu-VL2; human IgG1 kappa isotype) VH: QVQLVQSGSELKKPGASVKVSCKAFGYTFTTYPIEWMRQAPGQGLEWIGNFHPYNDDTKYNEGFTGRFVLSVDKSSTTVYLQISSLKAEDTAVYYCARENYGSHGGFVYWGQGTLVTVSS VL: ENQLTQSPSSLSASVGDRVTITCRASSSVISSYLHWYQQKPGKAPKLLIYSTSNLASGVPSRFSGSGSGTDYTLTISSLQPEDFATYYCQQYRGYPLTFGGGTKLEIK
14 | 80200 | – | humCL19v14 (antibody, human IgG1, V domains shown, hu-VH4 + hu-VL2; human IgG1 kappa isotype) VH: QVQLVQSGSELKKPGASVKVSCKAFGYTFTTYPIEWVRQAPGQGLEWMGNFHPYNDDTKYNEGFTGRFVFSVDKSVTTVYLQISSLKAEDTAVYYCARENYGSHGGFVYWGQGTLVTVSS VL: ENQLTQSPSSLSASVGDRVTITCRASSSVISSYLHWYQQKPGKAPKLLIYSTSNLASGVPSRFSGSGSGTDYTLTISSLQPEDFATYYCQQYRGYPLTFGGGTKLEIK
15 | 160 | – | humCL19v13 (antibody, human IgG1, V domains shown, hu-VH4 + hu-VL1; human IgG1 kappa isotype) VH: QVQLVQSGSELKKPGASVKVSCKAFGYTFTTYPIEWVRQAPGQGLEWMGNFHPYNDDTKYNEGFTGRFVFSVDKSVTTVYLQISSLKAEDTAVYYCARENYGSHGGFVYWGQGTLVTVSS VL: ENQLTQSPSSLSASVGDRVTITCRASSSVISSYLHWYQQKPGKAPKLLIYSTSNLASGVPSRFSGSGSGTDYTLTISSLQPEDFATYYCQQYNSYPLTFGGGTKLEIK

Source: patent US20230312743A1 (MIROBIO, published 2023)
